Reference: patent US20250325630A1, “HOMODIMER FUSION PROTEINS FOR TREATING ATOPIC DERMATITIS” (Intervet Inc., priority 2021, published 2025)

T1: canine IL-13 (cIL-13) (Canis lupus familiaris, UniProt Q9N0W9)
T1 sequence (Q9N0W9 19-131): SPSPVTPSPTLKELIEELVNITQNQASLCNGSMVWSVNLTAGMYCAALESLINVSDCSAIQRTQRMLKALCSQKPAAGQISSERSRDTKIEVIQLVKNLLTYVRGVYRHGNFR

T2: canine IL-4 (cIL-4) (Canis lupus familiaris, UniProt O77762)
T2 sequence (O77762 25-132): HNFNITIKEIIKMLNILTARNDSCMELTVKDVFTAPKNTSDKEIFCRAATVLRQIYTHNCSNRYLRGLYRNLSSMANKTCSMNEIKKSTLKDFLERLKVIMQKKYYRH


How the values were obtained:
[1] = target: T1, canine IL-13 (cIL-13); test: Binding kinetics of cFc fusion proteins to canine IL-13 (OCTET HTX); details: Table 4, cIL-13
Experimental: (§1) The binding constants for the cFc fusion proteins provided in Tables 3 and 4 below, were determined using OCTET® HTX. All kinetics measurements were performed by OCTET® HTX using SA® biosensors and DATA ACQUISITION® 12.0 software. 10 μg/mL of biotin-labeled antigen, either canine IL-4 (cIL-4) or canine IL-13 (cIL-13) were loaded onto the SAR biosensors for 120 seconds. Next, the biosensors were placed into 1×pH 7.0 TBS/Casein buffer for 60 seconds for the blocking phase. For the association phase, antigen loaded biosensors were placed into 2-fold serial dilutions from 1 μM down to 15.6 nM of the wild-type, the bispecific, or the FcRn-mutant receptor Fc-fusions that recognized the cIL-4 or cIL-13 antigen in 1×pH 7.0 TBS/Casein buffer for 30 seconds. The last well was buffer alone and that sensor was used for reference sensor subtraction. Finally, the biosensors were placed into 1×pH 7.0 TBS/Casein buffer for 120 seconds for the dissociation phase. The results were then analyzed using Data Analysis 12.0 software and the curves were fitted using a 1:1 binding model.

[2] = target: T2, canine IL-4 (cIL-4); test: Binding kinetics of cFc fusion proteins to canine IL-4 (OCTET HTX); details: for ka / kdis: Table 3, cIL-4, ND = Binding Not Detected; for ka: association rate constant; for kdis: dissociation rate constant; for Kd: approximate values, read-out: binding constant (KD) with cIL-4
Experimental: as §1

Molecule	ka ([1]; association rate constant) [M⁻¹ s⁻¹]	kdis ([1]; dissociation rate constant) [s⁻¹]	loss in affinity for cIL-4 (KD times higher) relative to unmodified cIL-4Rα-cFc homodimer [2]	ka [2] [M⁻¹ s⁻¹]	kdis [2] [s⁻¹]	Kd [2] [nM]
cIL-13Rα2-cFc-YTE: cIL-13Rα2-cIgGB-Fc with L18Y/A20T/T22E half-life substitutions, SEQ ID NO: 10 (protein, homodimer) SMLSNAEIKVNPPQDFEIVDPGYLGYLSLQWQPPLFPDNFKECTIEYELKYRNIDSENWKTIITKNLHYKDGFDLNKGIEAKINTLLPAQCTNGSEVRSSWAETTYWTSPQGNRETKIQDMDCVYYNWQYLVCSWKPGMGVHFDTNYQLFYWYEGLDHSAECTDYIKVNGKNMGCRFPYLESSDYKDFYICVNGSSESQPIRPSYFIFQLQNIVKPMPPDYLSLTVKNSEEINLKWNMPKGPIPAKCFIYEIEFTEDGTTWVTTTVENEIQITRTSNESQKLCFLVRSKVNIYCSDDGIWSEWSDEQCWKGDIWKETPKRENGRVPRPPDCPKCPAPEMLGGPSVFIFPPKPKDTLYITREPEVTCVVVDLDPEDPEVQISWFVDGKQMQTAKTQPREEQFNGTYRVVSVLPIGHQDWLKGKQFTCKVNNKALPSPIERTISKARGQAHQPSVYVLPPSREELSKNTVSLTCLIKDFFPPDIDVEWQSNGQQEPESKYRTTPPQLDEDGSYFLYSKLSVDKSRWQRGDTFICAVMHEALHNHYTQESLSHSPGK	1.17e+06	5.04e-07				
cIL-4Rα-cFc-H: cIL-4Rα-cIgGB-Fc with N202H half-life substitution, SEQ ID NO: 11 (protein, homodimer) VKVLHEPSCFSDYISTSVCQWKMDHPTNCSAELRLSYQLDFMGSENHTCVPENREDSVCVCSMPIDDAVEADVYQLDLWAGQQLLWSGSFQPSKHVKPRTPGNLTVHPNISHTWLLMWTNPYPTENHLHSELTYMVNVSNDNDPEDFKVYNVTYMGPTLRLAASTLKSGASYSARVRAWAQTYNSTWSDWSPSTTWLNYYEPWEQHLPPKRENGRVPRPPDCPKCPAPEMLGGPSVFIFPPKPKDTLLIARTPEVTCVVVDLDPEDPEVQISWFVDGKQMQTAKTQPREEQFNGTYRVVSVLPIGHQDWLKGKQFTCKVNNKALPSPIERTISKARGQAHQPSVYVLPPSREELSKNTVSLTCLIKDFFPPDIDVEWQSNGQQEPESKYRTTPPQLDEDGSYFLYSKLSVDKSRWQRGDTFICAVMHEALHHHYTQESLSHSPGK			about 10 fold	785000	9.88e-05	0.1
cIL-4Rα-cFc-YTE: cIL-4Rα-cIgGB-Fc with L18Y/A20T/T22E half-life substitutions, SEQ ID NO: 8 (protein, homodimer) VKVLHEPSCFSDYISTSVCQWKMDHPTNCSAELRLSYQLDFMGSENHTCVPENREDSVCVCSMPIDDAVEADVYQLDLWAGQQLLWSGSFQPSKHVKPRTPGNLTVHPNISHTWLLMWTNPYPTENHLHSELTYMVNVSNDNDPEDFKVYNVTYMGPTLRLAASTLKSGASYSARVRAWAQTYNSTWSDWSPSTTWLNYYEPWEQHLPPKRENGRVPRPPDCPKCPAPEMLGGPSVFIFPPKPKDTLYITREPEVTCVVVDLDPEDPEVQISWFVDGKQMQTAKTQPREEQFNGTYRVVSVLPIGHQDWLKGKQFTCKVNNKALPSPIERTISKARGQAHQPSVYVLPPSREELSKNTVSLTCLIKDFFPPDIDVEWQSNGQQEPESKYRTTPPQLDEDGSYFLYSKLSVDKSRWQRGDTFICAVMHEALHNHYTQESLSHSPGK			~100 fold	830000	9.23e-06	0.01
cIL-4Rα-cFc: homodimer of canine IL-4Rα ECD, IgGB hinge region and IgGB cFc fusion protein, SEQ ID NO: 5 (protein, homodimer) VKVLHEPSCFSDYISTSVCQWKMDHPTNCSAELRLSYQLDFMGSENHTCVPENREDSVCVCSMPIDDAVEADVYQLDLWAGQQLLWSGSFQPSKHVKPRTPGNLTVHPNISHTWLLMWTNPYPTENHLHSELTYMVNVSNDNDPEDFKVYNVTYMGPTLRLAASTLKSGASYSARVRAWAQTYNSTWSDWSPSTTWLNYYEPWEQHLPPKRENGRVPRPPDCPKCPAPEMLGGPSVFIFPPKPKDTLLIARTPEVTCVVVDLDPEDPEVQISWFVDGKQMQTAKTQPREEQFNGTYRVVSVLPIGHQDWLKGKQFTCKVNNKALPSPIERTISKARGQAHQPSVYVLPPSREELSKNTVSLTCLIKDFFPPDIDVEWQSNGQQEPESKYRTTPPQLDEDGSYFLYSKLSVDKSRWQRGDTFICAVMHEALHNHYTQESLSHSPGK				703000	8.3e-07	
